Drawing on article PMC2728405, this text covers stoichiometry N (α-β tubulin heterodimers per Dp260) for one substance.

For this assay, the target named is microtubules preformed from purified tubulin (taxol-stabilized) (UniProt Q6B856). Description: co-sedimentation.

As to purified recombinant Flag-tagged Dp260, the stoichiometry N (α-β tubulin heterodimers per Dp260) is 1.4.
